This is an account of results in publication PMC6801465.

For this series, the target named is EGFR on the cell surface (Huh-7, U87MG, MDA-MB-231) (human) (UniProt P00533). The series can be described thus: flow cytometry. The settings on record: 2'-OMe on U, G, C, all A (positions 8, 14, 19, 21, 24) are DNA, Binding buffer: serum-free DMEM + 100 ug/mL tRNA, aptamers denatured 95 C 5 min, snap cooled on ice 10 min, ELONA 1 h (temperature not given). (In general: Flow cytometry measures light scatter and fluorescence of single cells or particles in a stream.)

As a reminder, the Kd is the equilibrium constant for the complex coming apart. Turning to “UGCUUUGAUGUCGAUUCGACAGGAGGC [CL-4RNV616]”, the Kd was 71.2 nM (Huh-7 cells), 89.8 nM (MDA-MB-231 cells) and 112 nM (U87MG cells).
